From patent US20120269832A1

Key:
[1] = target: human CD40L protein translated from transfected CD40L mRNA (pCR2.1 CD40L WT, >100 nucleotide poly-A tail) (human) (UniProt P29965); assay: cell-based or functional assay
[2] = target: CD40, the cognate receptor molecule for CD40L, on human monocyte-derived dendritic cells (human) (UniProt P25942); assay: cell-based or functional assay
UniProt P25942, sequence (P25942 21-277): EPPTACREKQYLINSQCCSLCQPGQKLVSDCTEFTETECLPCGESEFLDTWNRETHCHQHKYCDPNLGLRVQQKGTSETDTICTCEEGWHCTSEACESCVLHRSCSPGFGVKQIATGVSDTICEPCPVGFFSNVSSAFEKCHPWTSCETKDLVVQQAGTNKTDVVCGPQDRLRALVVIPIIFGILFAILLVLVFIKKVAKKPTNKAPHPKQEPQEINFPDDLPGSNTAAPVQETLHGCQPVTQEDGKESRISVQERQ

IL-12p70 (pg/ml), "Cocktail" matured and reactivated DCs co-cultured with HeLa/>100 polyA + IFN-γ + 24-31 [1] | IL-12 p70 release from CD40L mRNA-transfected DCs cultured with IFN-γ and 10 or 50 µg/ml blocking anti-CD40L antibody [1] | IL-12p70 (pg/ml), "Cocktail" matured and reactivated DCs co-cultured with HeLa/>100 polyA + IFN-γ [2] | IL-12p70 (pg/ml), immature DCs co-cultured with HeLa/>100 polyA + IFN-γ [2] | Substance
2.5 pg/mL | 50% | – | – | blocking CD40L monoclonal antibody 24-31 (eBioscience)
– | – | 26.3 pg/mL | 372 pg/mL | human CD40L protein translated from transfected CD40L mRNA (pCR2.1 CD40L WT, >100 nucleotide poly-A tail) (from UniProt P29965 1-261) (ligand)
